Ends that are not written are not given here.

Results on six molecules are retold here after paper PMC10382551, “Affinity-matured homotypic interactions induce spectrum of PfCSP structures that influence protection from malaria infection” (Nature Communications, 2023).

What all share (conditions): both partners purified
The target of assay [1] is T1, NPNA4 peptide, biotinylated at the C-terminus (BLI) (Plasmodium falciparum (isolate 3D7).).
T1 construct: source: synthetic peptide (InnoPep Inc)
T1 chain: NPNANPNANPNANPNA-biotin
The assay can be described thus: BLI. A general note: Biolayer interferometry detects binding as a change in optical thickness at a sensor tip.

In the next assay the target is T2, NPNA4 peptide (Plasmodium falciparum (isolate 3D7)., not fully specified).
T2 construct: source: synthetic peptide (InnoPep Inc, purity >=97%)
T2 chain: NPNANPNANPNANPNA
The assay can be described thus: BLI.

The target in the next assay is T3, NPNA8 peptide (Plasmodium falciparum (isolate 3D7)., not fully specified).
T3 construct: source: synthetic peptide (InnoPep Inc, purity >=97%)
T3 chain: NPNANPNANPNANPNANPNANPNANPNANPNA
The assay is described as follows: BLI.

Assay [2] concerns the target T4, NPNA8 peptide (used for cryo-EM with Fab 227) (Plasmodium falciparum, not fully specified).
T4 construct: source: synthetic peptide (InnoPep Inc)
T4 chain: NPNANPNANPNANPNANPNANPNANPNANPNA
The assay can be described thus: cryo-EM structure; saturating amounts of Fab incubated with rsCSP (or NPNA8 for Fab 227) overnight at 4 °C, complex purified by SEC (Superose 6 Increase, TBS), single particle cryo-EM.

Assay [3] deals with T4, NPNA8 peptide (used for cryo-EM with …). Described as above.

B1: Fab 239R, germline-reverted mutant of 239 (Fab, V domains shown)
VH: QVQLVESGGGVVQPGRSLRLSCAASRLTFSSYGMHWVRQTPGKGLEWVAVIWHDGSNKFYADSVKGRFTISRDNSKNTLYLQMNSLRDEDTAIYYCAKDWGGASDRVFDYWGRGTLVIVSS
VL: DIQMTQSPSTLSASVGDRVTITCRASQSVSTSLAWYQQKPGKAPNLLIYQASTLYTGVPSRFSGSGSGTEFTLTIGSLQPDDFATYYCQHYNSYSRITFGQGTRLEIK
notes: source: ExpiCHO cells, purified (mAb Select PrismA or Capture Select, SEC)
Regarding B1, the “fold change of apparent affinity against 239” value in assay [1] is around 2 fold.

B2: 239R Fab (Fab, V domains shown)
VH: QVQLVESGGGVVQPGRSLRLSCAASRLTFSSYGMHWVRQTPGKGLEWVAVIWHDGSNKFYADSVKGRFTISRDNSKNTLYLQMNSLRDEDTAIYYCAKDWGGASDRVFDYWGRGTLVIVSS
VL: DIQMTQSPSTLSASVGDRVTITCRASQSVSTSLAWYQQKPGKAPNLLIYQASTLYTGVPSRFSGSGSGTEFTLTIGSLQPDDFATYYCQHYNSYSRITFGQGTRLEIK
notes: also called Fab239R; 239 FabR; source: ExpiCHO cells, purified (mAb Select PrismA or Capture Select, SEC)
In general, Kd refers to the free concentration of one partner at which half of the binding sites on the other are occupied at equilibrium, for simple one-to-one binding. Low values mean tighter binding, high ones weaker binding. Turning to B2, the Kd in the assay with NPNA4 peptide amounted to 165 nM; in the assay with NPNA8 peptide, 205 nM.

B3: Fab 356R, germline-reverted mutant of 356 (Fab, V domains shown)
VH: QVQLVESGGGVVQPGRSLRLSCAASGFTFSSYGMHWVRQTPGKGLEWVAVIWHDGSNKFYADSVKGRFTISRDNSKNMIYLQMNSLRVEDTAIYYCARDSLFYDHDNSGYYGYWGQGTLVTVSS
VL: EIVMTQSPATVSVSPGERATLSCRASQSVTSKLAWYQQKPGQAPRLLIYGASTRATGIPARFSGSGSGTEFTLTISSLQSEDFAVYFCQQYNNGFTFGPGTKVDFK
notes: as for B1
As to B3, the “fold change of apparent affinity against 356” value in assay [1] is around 2 fold.

B4: Fab of mAb 227 (Fab, V domains shown)
VH: QVQLVQSGGGVVQPGRSLRLSCVTSGFTFPAFGMHWVRQAPGKGLEWVAVIWYDGSKKYYADSVRGRFTISRDNSRNTLYLQMHSLRAEDTAVYYCARVKNYESSGYSQCLDYWGQGVLVTVAS
VL: QSVLTQPPSVSGAPGQRVTISCTGSSSNIGAGYDVHWYQQLPGTAPKLLIYGNGNRPSGVPDRFSGSKSGTSVSLAITGLQAEDEADYYCQSYDSSLSAFVFGTGTKVTVL
notes: also called 227 Fab; source: ExpiCHO cells, purified (mAb Select PrismA or Capture Select, SEC)
What is called stoichiometry N is the number of molecules, sites or subunits per partner or assembly. In the case of B4, the “stoichiometry N” value in assay [2] was 8 Fabs bound; in assay [3], 4 Fabs per NPNA8 disc.

B5: 311R Fab (Fab, V domains shown)
VH: QVQLVESGGGVVPPGRSLRLSCATSGFTFSSYGMHWVRQAPGKGLEWVAIIWYDGSNKFYAASVKGRFTISRDNSKNTLYLQMNSLRVEDTAVYYCARAAYYDTSGYGDYWGQGTLVTVSS
VL: QSVLTQPPSVSGAPGQTVTISCTGGSSNIGAGYDVHWYQQLPGTAPKLLIYGNINRPSGVPDRFSGSKSGTSASLAITGLQAEDEADYYCQSYDSSLSGSWVFGGGTKLTVL
notes: also called Fab311R; germline-reverted 311; source: ExpiCHO cells, purified (mAb Select PrismA or Capture Select, SEC)
B5: the Kd in the assay with NPNA4 peptide turned out to be 131 nM; with NPNA8 peptide it was 401 nM.

B6: 364 Fab (Fab, V domains shown)
VH: QVQLVESGGGVVQPGGSLRLSCAASGFTFSGYGMHWVRQVPGKGLEWVAIIWFDGSQKYYADSVQGRFTISRDNSKKTLFLRMNSLRAEDTAVYYCAKVHDDEPTQDYWGQGTLVTVSS
VL: DIQMTQSPSTLSASVGDRVTITCRASQGISTSLAWYQQKPGKAPKLLIYKASSLESGVPSRFSGSGSGTEFTLTITSLQPEDFATYYCQQYKRYWTFGQGTKVEIK
notes: as for B1
For the molecule B6, the Kd with NPNA4 peptide is 260 nM; with NPNA8 peptide, 4.88 nM.
